Measured values reported in patent US20240400614A1, “CLEAVABLE PEPTIDES AND METHODS OF USE THEREOF” (Bright Peak Therapeutics AG, priority 2023, published 2024).
Square brackets hold non-standard residues; d marks the D form. Ends that are not written are not given here. Tyr(3-NO2) = N[C@@H](Cc1ccc(O)c([N+](=O)[O-])c1)C(=O)O; Nle = CCCC[C@H](N)C(=O)O; 2Abz = Nc1ccccc1C(=O)O

Experiments:
Type in all cases: biochemical
uPA = uPA (Homo sapiens, UniProt P00749); experiment: FRET peptide cleavage efficiency with uPA
MMP-7 = biological target: T1, MMP-7 (Homo sapiens, UniProt P09237); experiment: FRET peptide cleavage efficiency with MMP-7 (standard pH 7.5; also pH 6.5)
T1 construct: purchased SIGMA CC1059
T1 sequence (P09237 95-267): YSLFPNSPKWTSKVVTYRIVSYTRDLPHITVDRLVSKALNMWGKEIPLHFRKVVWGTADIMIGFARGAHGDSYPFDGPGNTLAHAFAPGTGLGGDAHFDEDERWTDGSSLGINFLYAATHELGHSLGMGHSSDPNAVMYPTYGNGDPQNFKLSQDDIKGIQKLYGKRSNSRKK

MMP-9 = biological target: T2, MMP-9 (Homo sapiens, UniProt P14780); experiment: FRET peptide cleavage efficiency with MMP-9 (standard pH 7.5; also pH 6.5)
T2 construct: purchased SIGMA PF024

matriptase = biological target: T3, matriptase (Homo sapiens, UniProt Q9Y5Y6); experiment: FRET peptide cleavage efficiency with matriptase
T3 construct: purchased R&D Systems 3946-SEB
T3 sequence (Q9Y5Y6 615-855 limits assumed): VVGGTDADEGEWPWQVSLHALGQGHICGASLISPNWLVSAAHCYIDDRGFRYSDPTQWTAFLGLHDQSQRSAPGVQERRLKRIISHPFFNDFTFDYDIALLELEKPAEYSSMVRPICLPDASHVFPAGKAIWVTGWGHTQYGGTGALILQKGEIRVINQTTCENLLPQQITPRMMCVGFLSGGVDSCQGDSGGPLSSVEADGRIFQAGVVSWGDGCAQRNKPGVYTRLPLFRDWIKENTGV

MMP-2 = biological target: T4, MMP-2 (Homo sapiens, UniProt P08253); experiment: FRET peptide cleavage efficiency with MMP-2
T4 construct: purchased SIGMA PF023
T4 sequence (P08253 110-660): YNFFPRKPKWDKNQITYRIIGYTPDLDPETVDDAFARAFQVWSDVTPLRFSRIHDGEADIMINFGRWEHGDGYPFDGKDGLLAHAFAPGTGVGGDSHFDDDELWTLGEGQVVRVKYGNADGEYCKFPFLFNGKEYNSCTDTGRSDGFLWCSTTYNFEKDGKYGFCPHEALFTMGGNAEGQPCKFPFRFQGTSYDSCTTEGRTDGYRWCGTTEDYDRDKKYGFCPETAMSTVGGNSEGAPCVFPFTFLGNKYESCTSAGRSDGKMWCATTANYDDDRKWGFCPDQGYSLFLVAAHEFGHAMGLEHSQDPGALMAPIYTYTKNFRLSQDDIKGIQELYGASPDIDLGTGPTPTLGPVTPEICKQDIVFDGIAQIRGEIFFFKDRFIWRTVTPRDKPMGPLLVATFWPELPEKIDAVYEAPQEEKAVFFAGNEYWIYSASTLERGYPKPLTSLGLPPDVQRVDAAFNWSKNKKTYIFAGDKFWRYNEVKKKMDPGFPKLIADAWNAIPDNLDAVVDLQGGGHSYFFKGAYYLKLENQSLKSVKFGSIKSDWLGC

[1] = t = 15 min, standard conditions (Table 8)
[2] = t = 60 min, standard conditions (Table 8)
[3] = t = 120 min, standard conditions (Table 8)
[4] = 200 uM linker, 1 ug/ml protease, 37° C., buffer A pH 8.5
[5] = 200 uM linker, 1 ug/ml protease, 37° C., buffer B pH 9.0
[6] = t = 15 min, 200 uM linker, 1 ug/ml protease, 37° C., buffer C pH 7.5
[7] = t = 60 min, 200 uM linker, 1 ug/ml protease, 37° C., buffer C pH 7.5
[8] = t = 120 min, 200 uM linker, 1 ug/ml protease, 37° C., buffer C pH 7.5

T2 sequence (P14780 94-707): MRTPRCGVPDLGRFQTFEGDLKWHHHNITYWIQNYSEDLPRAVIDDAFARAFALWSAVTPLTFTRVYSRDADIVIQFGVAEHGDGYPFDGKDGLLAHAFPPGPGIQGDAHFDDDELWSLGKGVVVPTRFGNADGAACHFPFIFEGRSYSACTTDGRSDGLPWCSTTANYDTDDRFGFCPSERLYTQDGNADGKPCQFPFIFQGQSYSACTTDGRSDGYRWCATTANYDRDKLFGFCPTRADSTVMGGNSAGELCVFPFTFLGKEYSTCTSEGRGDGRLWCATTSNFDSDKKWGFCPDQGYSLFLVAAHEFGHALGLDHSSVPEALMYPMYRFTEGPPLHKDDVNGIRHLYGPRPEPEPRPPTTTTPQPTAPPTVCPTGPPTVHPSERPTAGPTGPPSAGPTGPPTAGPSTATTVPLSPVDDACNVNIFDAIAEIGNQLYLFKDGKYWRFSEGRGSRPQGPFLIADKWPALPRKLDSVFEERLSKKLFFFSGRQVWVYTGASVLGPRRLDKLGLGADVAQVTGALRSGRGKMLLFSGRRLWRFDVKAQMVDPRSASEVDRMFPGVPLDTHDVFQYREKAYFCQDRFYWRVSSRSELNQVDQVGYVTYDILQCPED

## RGRKPQPLVD ([2Abz]RGRKPQPLVD[Tyr(3-NO2)]-NH2) [LNK039]
uPA; standard conditions (Table 8)
  % vcleavage uPA t = 15 min: 0%
  % cleavage uPA t = 60 min: 0%
  % cleavage uPA t = 120 min: 0%
MMP-7; t = 15 min (Table 9)
  % cleavage MMP-7 t = 15 min: 35%
MMP-7; [1]
  % cleavage MMP-7 t = 15 min: 35%
MMP-7; t = 60 min (Table 9)
  % cleavage MMP-7 t = 60 min: 80%
MMP-7; [2]
  % cleavage MMP-7 t = 60 min: 80%
MMP-7; t = 120 min (Table 9)
  % cleavage MMP-7 t = 120 min: 96%
MMP-7; [3]
  % cleavage MMP-7 t = 120 min: 96%
MMP-9; t = 15 min (Table 9)
  % cleavage MMP-9 t = 15 min: 25%
MMP-9; [1]
  % cleavage MMP-9 t = 15 min: 25%
MMP-9; t = 60 min (Table 9)
  % cleavage MMP-9 t = 60 min: 74%
MMP-9; [2]
  % cleavage MMP-9 t = 60 min: 74%
MMP-9; t = 120 min (Table 9)
  % cleavage MMP-9 t = 120 min: 94%
MMP-9; [3]
  % cleavage MMP-9 t = 120 min: 94%
matriptase; standard conditions (Table 8)
  % cleavage Matriptase t = 15 min: 77%
  % cleavage Matriptase t = 60 min: 100%
  % cleavage Matriptase t = 120 min: 100%
MMP-2; t = 15 min (Table 9)
  % cleavage MMP-2 t = 15 min: 10%
MMP-2; t = 60 min (Table 9)
  % cleavage MMP-2 t = 60 min: 38%
MMP-2; [2]
  % cleavage MMP-2 t = 60 min: 38%
MMP-2; t = 120 min (Table 9)
  % cleavage MMP-2 t = 120 min: 61%
MMP-2; [3]
  % cleavage MMP-2 t = 120 min: 61%

## RGRKPY-Nle-LQG ([2Abz]RGRKPY[Nle]LQG[Tyr(3-NO2)]-NH2) [LNK036]
uPA; standard conditions (Table 8)
  % vcleavage uPA t = 15 min: 0%
  % cleavage uPA t = 60 min: 0%
  % cleavage uPA t = 120 min: 0%
MMP-7; t = 15 min (Table 9)
  % cleavage MMP-7 t = 15 min: 34%
MMP-7; [1]
  % cleavage MMP-7 t = 15 min: 34%
MMP-7; t = 60 min (Table 9)
  % cleavage MMP-7 t = 60 min: 88%
MMP-7; [2]
  % cleavage MMP-7 t = 60 min: 88%
MMP-7; t = 120 min (Table 9)
  % cleavage MMP-7 t = 120 min: 100%
MMP-7; [3]
  % cleavage MMP-7 t = 120 min: 100%
MMP-9; t = 15 min (Table 9)
  % cleavage MMP-9 t = 15 min: 28%
MMP-9; [1]
  % cleavage MMP-9 t = 15 min: 28%
MMP-9; t = 60 min (Table 9)
  % cleavage MMP-9 t = 60 min: 87%
MMP-9; [2]
  % cleavage MMP-9 t = 60 min: 87%
MMP-9; t = 120 min (Table 9)
  % cleavage MMP-9 t = 120 min: 100%
MMP-9; [3]
  % cleavage MMP-9 t = 120 min: 100%
matriptase; standard conditions (Table 8)
  % cleavage Matriptase t = 15 min: 76%
  % cleavage Matriptase t = 60 min: 100%
  % cleavage Matriptase t = 120 min: 100%
MMP-2; t = 15 min (Table 9)
  % cleavage MMP-2 t = 15 min: 27%
MMP-2; t = 60 min (Table 9)
  % cleavage MMP-2 t = 60 min: 70%
MMP-2; [2]
  % cleavage MMP-2 t = 60 min: 70%
MMP-2; t = 120 min (Table 9)
  % cleavage MMP-2 t = 120 min: 88%
MMP-2; [3]
  % cleavage MMP-2 t = 120 min: 88%

## SGRVLRKAGPAGLVG ([2Abz]SGRVLRKAGPAGLVG[Tyr(3-NO2)]-NH2) [LNK013]
uPA; [4]
  % cleavage uPA t = 15 min: 0%
  % cleavage uPA t = 60 min: 2%
  % cleavage uPA t = 120 min: 6%
matriptase; [5]
  % cleavage Matriptase t = 15 min: 99%
  % cleavage Matriptase t = 60 min: 94%
  % cleavage Matriptase t = 120 min: 94%
MMP-2; [6]
  % cleavage MMP-2 t = 15 min: 99%
MMP-2; [7]
  % cleavage MMP-2 t = 60 min: 99%
MMP-2; [8]
  % cleavage MMP-2 t = 120 min: 100%

## SGRVLTLRKAALPLAM ([2Abz]SGRVLTLRKAALPLAM[Tyr(3-NO2)]-NH2) [LNK020]
uPA; [4]
  % cleavage uPA t = 15 min: 11%
  % cleavage uPA t = 60 min: 26%
  % cleavage uPA t = 120 min: 45%
matriptase; [5]
  % cleavage Matriptase t = 15 min: 98%
  % cleavage Matriptase t = 60 min: 99%
  % cleavage Matriptase t = 120 min: 99%
MMP-2; [6]
  % cleavage MMP-2 t = 15 min: 55%
MMP-2; [7]
  % cleavage MMP-2 t = 60 min: 98%
MMP-2; [8]
  % cleavage MMP-2 t = 120 min: 99%

## SGRVLTLRKAGPAGLVG ([2Abz]SGRVLTLRKAGPAGLVG[Tyr(3-NO2)]-NH2) [LNK011]
uPA; [4]
  % cleavage uPA t = 15 min: 6%
  % cleavage uPA t = 60 min: 17%
  % cleavage uPA t = 120 min: 35%
matriptase; [5]
  % cleavage Matriptase t = 15 min: 99%
  % cleavage Matriptase t = 60 min: 99%
  % cleavage Matriptase t = 120 min: 99%
MMP-2; [6]
  % cleavage MMP-2 t = 15 min: 98%
MMP-2; [7]
  % cleavage MMP-2 t = 60 min: 99%
MMP-2; [8]
  % cleavage MMP-2 t = 120 min: 98%

## SGRVLTLRKAGPANLVG ([2Abz]SGRVLTLRKAGPANLVG[Tyr(3-NO2)]-NH2) [LNK012]
uPA; [4]
  % cleavage uPA t = 15 min: 0%
  % cleavage uPA t = 60 min: 15%
  % cleavage uPA t = 120 min: 34%
matriptase; [5]
  % cleavage Matriptase t = 15 min: 99%
  % cleavage Matriptase t = 60 min: 99%
  % cleavage Matriptase t = 120 min: 98%
MMP-2; [6]
  % cleavage MMP-2 t = 15 min: 97%
MMP-2; [7]
  % cleavage MMP-2 t = 60 min: 97%
MMP-2; [8]
  % cleavage MMP-2 t = 120 min: 94%

## SGRVLTLRKAPWGLLE ([2Abz]SGRVLTLRKAPWGLLE[Tyr(3-NO2)]-NH2) [LNK004]
uPA; [4]
  % cleavage uPA t = 15 min: 6%
  % cleavage uPA t = 60 min: 16%
  % cleavage uPA t = 120 min: 27%
matriptase; [5]
  % cleavage Matriptase t = 15 min: 98%
  % cleavage Matriptase t = 60 min: 98%
  % cleavage Matriptase t = 120 min: 95%
MMP-2; [6]
  % cleavage MMP-2 t = 15 min: 16%
MMP-2; [7]
  % cleavage MMP-2 t = 60 min: 50%
MMP-2; [8]
  % cleavage MMP-2 t = 120 min: 74%

## SPLGLAGS ([2Abz]SPLGLAGS[Tyr(3-NO2)]-NH2) [LNK030]
uPA; [4]
  % cleavage uPA t = 15 min: 0%
  % cleavage uPA t = 60 min: 0%
  % cleavage uPA t = 120 min: 0%
matriptase; [5]
  % cleavage Matriptase t = 15 min: 0%
  % cleavage Matriptase t = 60 min: 0%
  % cleavage Matriptase t = 120 min: 0%
MMP-2; [6]
  % cleavage MMP-2 t = 15 min: 67%
MMP-2; [7]
  % cleavage MMP-2 t = 60 min: 100%
MMP-2; [8]
  % cleavage MMP-2 t = 120 min: 99%

## SSRAVFRKNLGPLGLAG ([2Abz]SSRAVFRKNLGPLGLAG[Tyr(3-NO2)]-NH2) [LNK002]
uPA; [4]
  % cleavage uPA t = 15 min: 5%
  % cleavage uPA t = 60 min: 10%
  % cleavage uPA t = 120 min: 18%
matriptase; [5]
  % cleavage Matriptase t = 15 min: 89%
  % cleavage Matriptase t = 60 min: 85%
  % cleavage Matriptase t = 120 min: 84%
MMP-2; [6]
  % cleavage MMP-2 t = 15 min: 77%
MMP-2; [7]
  % cleavage MMP-2 t = 60 min: 99%
MMP-2; [8]
  % cleavage MMP-2 t = 120 min: 98%

## SSRGPASNRRLPLGLAG ([2Abz]SSRGPASNRRLPLGLAG[Tyr(3-NO2)]-NH2) [LNK001]
uPA; [4]
  % cleavage uPA t = 15 min: 4%
  % cleavage uPA t = 60 min: 17%
  % cleavage uPA t = 120 min: 30%
matriptase; [5]
  % cleavage Matriptase t = 15 min: 77%
  % cleavage Matriptase t = 60 min: 99%
  % cleavage Matriptase t = 120 min: 99%
MMP-2; [6]
  % cleavage MMP-2 t = 15 min: 54%
MMP-2; [7]
  % cleavage MMP-2 t = 60 min: 98%
MMP-2; [8]
  % cleavage MMP-2 t = 120 min: 99%

## SSRVFRKPANLAG ([2Abz]SSRVFRKPANLAG[Tyr(3-NO2)]-NH2) [LNK019]
uPA; [4]
  % cleavage uPA t = 15 min: 4%
  % cleavage uPA t = 60 min: 6%
  % cleavage uPA t = 120 min: 10%
matriptase; [5]
  % cleavage Matriptase t = 15 min: 90%
  % cleavage Matriptase t = 60 min: 97%
  % cleavage Matriptase t = 120 min: 97%
MMP-2; [6]
  % cleavage MMP-2 t = 15 min: 84%
MMP-2; [7]
  % cleavage MMP-2 t = 60 min: 99%
MMP-2; [8]
  % cleavage MMP-2 t = 120 min: 99%
